B1: PHTF1 (parent)
chain: SRHLNSQVKKTTTRWCHIVRDSDS
B2: FUT8 (parent)
chain: YAHQPRTADEIPMEPGDIIGVAGN

Variants of: B1
Experiment: protein stability index of a GFP-peptide fusion (GPS, HEK-293T) (PSI 1-6); higher = more stable
Conditions: c terminus: a fixed tail appended
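Further: lentivirally expressed fusions sorted by FACS into six bins by GFP to DsRed ratio, PSI derived from sequencing read proportions per bin multiplied by bin number.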

Protein stability index, by site and new letter:
C16: E 2.34, A 1.3, G 3.53, H 3.28, S 2.14, N 3.65, P 2.57, I 1.84, L 2.79, T 2.01, F 2.07
K9: P 2.71, L 2.21, Y 1.68, M 2.37, D 2.23, N 2.35, I 1.97, A 2.48, W 1.85, C 2.13, V 3.18, T 1.83
T11: Y 2.41, P 2, M 2.39, V 1.13, G 2.48, S 1.83, E 2.11, Q 2.43
K10: D 2.56, L 1.8, M 2.37, C 2.11, P 2.28, V 2.71, G 2.55, S 2.87, E 2.63, Q 2.19, I 1.61, N 2.72, T 1.98
N5: K 1.8, I 2.73, L 1.92, F 2.02, T 2.38, A 2.19, V 1.29, S 1.92
H3: N 1.69, F 2.77, E 2.52, G 2.21, P 1.64, K 2.02, C 1.95, M 2.15, I 1.25, V 2.36, A 2.23, L 2.08, Q 2.28
D23: V 1.62, Q 1.84, L 1.75, P 2.78, Y 1.88, K 1.74, G 1.56
R14: D 3, E 3.35, Q 2.67, H 2.17, T 1.71, L 2.14, K 2.3, G 2.57, N 2.94, M 1.6, C 1.87, F 2.04, Y 2.05
W15: H 3.53, G 3.24, L 2.77, D 4.57, M 3.22, Y 3.36, R 3.94, A 2.37, C 2.74, E 4.88, P 3.86, N 3.56, Q 4.35
T12: Q 2.12, E 2.68, W 2.36, L 1.53, I 1.93, R 2.09, N 1.76, D 2.91
H17: W 2.62, N 2.43, C 1.66, S 2.31, E 1.29, K 2.59, L 1.7, V 1.71, A 1.42, R 2.58, P 2.31, F 2.75, Q 1.71
V8: Y 1.57, P 2.18, E 2.79, R 1.78, K 1.79, Q 1.98, L 2.07, D 2.06, F 2.57, H 2.22, C 2.6, T 2.1
S1: I 1.23, F 1.76, W 2.1, N 2.51, E 1.8, Y 2.25, K 2.26, D 3.06, V 1.84
R20: F 2.37, K 1.25, A 2.31, I 1.18, V 3.11, Y 2.4, C 1.39, H 2.29, N 1.45, L 2.17, T 2.61, Q 2.09, W 1.57, G 1.76
I18: W 2.15, E 3.1, S 3.95, R 3.06, L 3.42, T 2.17, Y 1.74, V 1.73, H 2.52
L4: N 2.05, P 2.44, I 2.75, R 1.95, K 2.56, A 2.58, H 2.15, F 3.09
T13: D 2.76, V 3.04, M 2.1, R 2.14, E 2.94, K 1.76
S24: C 2, F 2.04, K 1.92, P 2.01, N 2.66, V 1.88, R 1.37, H 2.02, Y 1.53, I 1.36, G 2.13, T 2.99, M 2.21
V19: F 1.55, E 3.71, I 1.75, H 1.66, G 2.4, L 2.35, M 2.94, A 2.8, K 2.3, W 1.62
S22: E 1.87, Q 2.65, F 1.86, W 2.08, K 2.84, M 2.15, T 1.94
R2: P 1.89, F 2.56, D 2.3, S 2.23, K 2.53, T 2.15, Q 2.4, G 1.69, L 2.17, Y 2, E 2.35, H 1.96, M 2.13
D21: P 2.57, K 2.39, H 1.44, R 1.55, V 1.37, M 1.82, E 1.5, L 3.98
S6: R 2.17, I 2.22, C 1.7, G 1.98, W 2.5, D 2.88, K 2.38, Q 2.61, F 1.45, H 2.29, P 3.03
Q7: T 2.82, R 2, N 1.78, H 3.08, L 1.84, I 2.17, S 2.8, M 1.73, W 2.84, P 2.69

Variants of: B2
Experiment: as above
Conditions: c terminus: a fixed tail appended

Protein stability index of substitutions, site by site:
A2: R 4.56, T 4.49, P 4.43, E 5.05, Y 4.3, C 4.03, N 4.92, G 4.69, I 3.15, V 2.39, W 3.63, F 4.45, H 3.59, K 4.51, Q 4.09, D 5.06, M 4.38, S 4.53, L 4.67
H3: Y 3.45, N 4.43, F 3.66, M 3.99, A 4.56, P 2.92, K 4.34, E 4.87, D 4.78, R 3.44, S 4.36, V 4.46, T 4.25, I 4.2, C 3.62, L 4.77, Q 4.39, W 3.11, G 3.36
Y1: N 4.75, H 5.37, P 5.26, D 5.19, A 5.22, E 4.92, R 4.84, K 5, S 4.88, V 4.28, C 3.93, F 3.6, W 4.52, Q 5.12, G 5.17, T 5.16, M 5.19, I 5.16, L 4.75
P5: H 3.85, G 3.96, C 3.72, I 3.4, A 4.23, F 3.11, D 4.93, K 3.61, E 4.62
Q4: C 3.81, P 3.52, K 2.85, S 3.8, L 4.26, Y 3.66, A 4.07, M 3.73, D 4.36, V 3.5, H 3.92, T 3.72, G 3.52, F 2.77, E 4.61, R 3.06, I 3.54, W 1.98, N 4.07
